From article PMC4298015 come the findings set out here.

One series addresses GST-Gli1ZF-WT (UniProt P08151 242-424). In words: EMSA. (Mobility shift assays separate free from complexed probe on a gel.)
In another series the target is GST-Gli1ZF-K350A (UniProt P08151 242-424, K350A). In words: EMSA.
Chain of GST-Gli1ZF-K350A (P08151 242-424 K350A): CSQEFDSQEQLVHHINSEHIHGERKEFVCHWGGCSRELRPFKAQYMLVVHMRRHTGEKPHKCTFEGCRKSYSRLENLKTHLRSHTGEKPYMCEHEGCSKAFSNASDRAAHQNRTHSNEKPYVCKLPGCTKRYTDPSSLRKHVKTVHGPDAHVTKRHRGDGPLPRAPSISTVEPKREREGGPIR

Chain of GST-Gli1ZF-WT (P08151 242-424): as the sequence (P08151 242-424 K350A) above, with A109K counted along it

B1: GliBS (dsDNA)
DNA 1: TTGCCTACCTGGGTGGTCTCTCCACTT
DNA 2: AAGTGGAGAGACCACCCAGGTAGGCAA
In the case of B1, the binding result was “binds” with GST-Gli1ZF-WT and “no binding” with GST-Gli1ZF-K350A.
